Laboratory results taken from patent publication US20230107856A1 (SHANGHAI JUNSHI BIOSCIENCES, published 2023).
Values joined by “and” are separate entries in the source; they are usually repeats but may differ in a detail not shown here. Equal entries are not always repeated.

Biological target: T1, PD-1 (as used in the competitive ELISA) (UniProt Q15116 25-167, limits assumed)
T1 construct: PD-1 is inferred as the target from the next sentence on PD-1 receptor occupancy
Test: competitive ELISA; competing ligand not named

- IC50: 3 nM and ~0.5 µg/mL
B1: toripalimab (antibody, human IgG4 S228P, kappa, V domains shown)
VH: QGQLVQSGAEVKKPGASVKVSCKASGYTFTDYEMHWVRQAPIHGLEWIGVIESETGGTAYNQKFKGRVTITADKSTSTAYMELSSLRSEDTAVYYCAREGITTVATTYYWYFDVWGQGTTVTVSS
VL: DVVMTQSPLSLPVTLGQPASISCRSSQSIVHSNGNTYLEWYLQKPGQSPQLLIYKVSNRFSGVPDRFSGSGSGTDFTLKISRVEAEDVGVYYCFQGSHVPLTFGQGTKLEIKR
notes: Humanized IgG4 mAb; also called JS001; anti-PD-1 antibody toripalimab
